According to US8129349B2, “Treatment of disease by inducing cell apoptosis” (The Regents of the University of California, priority 2000, dated 2012):

Experiments:
[1] = molecular target: procaspase 8 (Homo sapiens, UniProt Q14790); experiment: Co-immunoprecipitation of purified recombinant procaspase 8 with recombinant C/EBPβ peptides; type: binding; set-up: 21 amino acid linker (vector-derived) (N); purchased Alexis Biochemicals 201-041-C005; settings: peptides 200 μM, procaspase 8 0.12 μg, quantitated by densitometry
Chain of procaspase 8 (Q14790 217-479): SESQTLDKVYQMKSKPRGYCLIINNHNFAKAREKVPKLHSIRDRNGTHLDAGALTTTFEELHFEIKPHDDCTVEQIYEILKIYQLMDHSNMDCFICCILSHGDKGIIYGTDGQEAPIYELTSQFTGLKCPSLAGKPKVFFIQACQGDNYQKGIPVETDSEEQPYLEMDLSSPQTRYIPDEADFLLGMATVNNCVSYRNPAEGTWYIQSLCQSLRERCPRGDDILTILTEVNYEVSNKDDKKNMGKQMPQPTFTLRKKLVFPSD
Description: (§1) FIG. 5 provides results showing the direct association of C/EBPβ-Glu^217 with procaspases 1 and 8. […] Enzyme activity was measured in the absence (control) or presence of C/EBPβ peptides (200 μM) for 2 h, using a procaspases 1 (1U) (not shown) and 8 (0.2 μg) activity assay. Values are presented as the mean±one half the range of duplicates. Panel C provides results for cells cultured on a collagen type I matrix and incubated with the indicated cell permeant, purified synthetic N-acetyl, C-aldehyde C/EBPβ tetra-peptides (10 μM) or with recombinant C/EBPβ-HA peptides as indicated, together with the Chariot reagent (Active Motif) for 4 h. Control cells were incubated without peptides (P<0.05 for all peptides containing Ala^217).
(§2) Purified recombinant C/EBPβ peptides, expressed as known in the art (See, Descombes et al., supra; and Buck et al. (1994), supra), and purified synthetic N-acetyl, C-aldehyde tetrapeptides (200 μM) (American Peptide Company) were assayed for their ability to inhibit the activity of purified human recombinant caspases 1 (catalogue # 201-056) and 8 (catalogue # 201-041-C005) (Alexis Biochemicals). The sequence of caspase 8 includes Ser217 through Asp479 cloned into an expression vector containing a 21 amino acid linker at the N-terminus. Thus, the prodomain (first 220 amino acids) is essentially missing. […] Caspase activity was determined by the release of the p-nitroaniline colorimetric (Alexis Biochemicals) substrate for caspase 1 (catalogue # 260-026) or 8 (catalogue # 260-045) within the linear part of the kinetic assay (Thornberry et al. (1997), supra; Stennicke and Salvesen, supra). […]
To delineate the role of C/EBPβ on the activation of procaspases 1 and 8, the self-activation of recombinant procaspases 1 and 8 was induced in vitro (Wilson et al., supra; Margolin et al., supra; and Earnshaw et al., supra), and the effect of purified recombinant C/EBPβ peptides, produced as described previously (Descombes et al., supra; and Buck et al., (1994), supra) on this process was determined. […]

[2] = molecular target: T1, caspase 8 (Homo sapiens, UniProt Q14790); experiment: In vitro self-activation of recombinant caspase 8; type: biochemical; settings: peptides 200 μM, 2 h, procaspase 8 (0.2 μg), colorimetric substrate
T1 construct: 21 amino acid linker (vector-derived) (N); purchased Alexis Biochemicals 201-041-C005
T1 sequence (Q14790 217-479): as above
Description: as §1
FIG. 7 provides data showing that phosphorylation of rat C/EBPβ on Ser^105 prevents stellate cell apoptosis. Panel A provides results for mouse stellate cells transfected as described herein (See, FIG. 2), with mutant p90RSK or treated with lactacystin (10 μM) (closed bars), and co-transfected with CMV-rC/EBPβ-Asp^105 (1 μg each) (open bars) as indicated. Annexin-V-PE binding was determined as described for FIG. 2 (P<0.05 for rC/EBPβ-Asp^105). Panel B provides results of an annexin-V-PE assay for stellate cells from C/EBPβ^+/+ (closed circles) and rC/EBPβ-Asp^105 transgenic (open circles) mice treated with lactacystin (0-30 μM). The annexin-V-PE assay was performed 6 hours after treatment began (P<0.05 for rC/EBPβ-Asp^105 transgenic mice for 5-25 μM lactacystin). Panel C provides results for rC/EBPβ-HA constructs (0.3 μg) transfected into rat stellate cells. The expressed peptides were immunoprecipitated with anti-HA antibodies. Using a specific antibody, rCEBPβ-PSer^105 was detected only in cells that expressed wild-type rC/EBPβ. […] Reciprocal immunoprecipitations confirmed these associations. […] Enzyme activity was measured using a colorimetric substrate as described in the Examples. […]
as §2, with “Biochemicals).” for “Biochemicals). The sequence of caspase 8 includes Ser217 through Asp479 cloned into an expression vector containing a 21 amino acid linker at the N-terminus. Thus, the prodomain (first 220 amino acids) is essentially missing.”

B1: C/EBPβ-Glu^217: modified murine C/EBPβ with mutation of Thr^217 to glutamic acid (SEQ ID NO:4), phosphorylation mimic (protein, listed as Mus musculus)
chain: MHRLLAWDAACLPPPPAAFRPMEVANFYYEPDCLAYGAKAARAAPRAPAAEPAIGEHERAIDFSPYLEPLAPAADFAAPAPAHHDFLSDLFADDYGAKPSKKPADYGYVSLGRAGAKAAPPACFPPPPPAALKAEPGFEPADCKRADDAPAMAAGFPFALRAYLGYQATPSGSSGSLSTSSSSSPPGTPSPADAKAAPAACFAGPPAAPAKAKAKKZVDKLSDEYKMRRERNNIAVRKSRDKAKMRNLETQHKVLELTAENERLQKKVEQLSRELSTLRNLFKQLPEPLLASAGHC
Co-immunoprecipitation of procaspase 8, fold more than the Ala^217 peptides [1]: 12 fold
Inhibition of in vitro self-activation of caspase 8 [2]: inhibited the in vitro self-activation
